Experimental data as given in patent publication US20220177524A1.

Molecular target: CD20 on Raji cells (CD20+) or K562-CD20 cells (UniProt P11836)
Assay: cell-based or functional assay

Substance	cytotoxicity on target cells (luciferase assay), MACS-sorted TCRαβ negative CD20 cTCR-T cells	cytotoxicity on target cells (luciferase assay), MACS-sorted TCRαβ negative CD20 TAC-T cells
anti-CD20 chimeric TCR (anti-CD20 scFv (Leu-16)-(GGGGS)3-CD3epsilon)	49.2%	
anti-CD20 TAC (anti-CD20 scFv (Leu-16)-(GGGGS)3-huUCHT1.Y177T-GGGGS-CD4)		54.6%
